From patent publication US20170119925

Tested on: T1, Gln-Pro-Gln-Gly-Leu-Ala-Lys (QPQGLAK) peptide crosslinker
T1 sequence: QPQGLAK

“general collagenase from Clostridium histolyticum” showed a kcat/Km (s^-1M^-1), digestion kinetics by HPLC of 32 s^-1M^-1.
